B1: library; a variant is named by its letters at N, in order (parent)
chain: GAGACCGCAACTGAAAAGTTGTGGNNNNNATAGTGAGTCGCTGCCTGCAAAGACACAACT

± gives the standard deviation of the averaged measurements.

This is an account of results in the supplement of paper PMC10219994.

The variants in the series derive from B1. Briefly: ligation selection enrichment (abundance after / before one-round selection) (fold); higher = more template-directed ligation activity. Conditions: with T7Psub CACGGAUGCUAAUACGACUCACUAUA; MgCl2 25 mM; 42 °C; 4 h; pH 8.5. The protocol: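 Lib-N5 ligase ribozyme library: five randomized core nucleotides (including the GGA motif of N8-1) within the fixed N8-1 ribozyme flanks, transcribed by T7 RNA polymerase with a 5'-triphosphate. The library (0.75 uM) was reacted with substrate T7Psub (6 uM) in 50 mM EPPS pH 8.5 with 25 mM MgCl2 at 42 C for 4 h. Ligated products were PAGE-purified, reverse transcribed and MiSeq sequenced; enrichment = abundance after selection / abundance before selection, with two independent replicates. The full transcript is built from the printed template flanks.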
In the case of AGATG, the ligation selection enrichment amounted to 0.602 ± 0.065. As to CGATG, the ligation selection enrichment was found to be 1.3 ± 0.22.

With CGATT, the ligation selection enrichment was found to be 4.38 ± 0.59. For CGATC the value was 0.294 ± 0.018. Turning to CGATA, the ligation selection enrichment was 1.05 ± 0.21.

As to TGTCC, the ligation selection enrichment is 0.338 ± 0.055.

Regarding TGTCT, the ligation selection enrichment is 0.335 ± 0.099.

Regarding TGTCG, the ligation selection enrichment was found to be 0.653 ± 0.0083. For TGTCA, the ligation selection enrichment came out at 0.325 ± 0.025. The same measure for CGGTA: 0.133 ± 0.028; for CGGTC: 0.1 ± 0.011. On to CGGTG, for which the ligation selection enrichment was 0.24 ± 0.069.

With CGGTT, the ligation selection enrichment worked out at 0.202 ± 0.042.

CGTTA: the ligation selection enrichment came to 0.263 ± 0.01. As to ACTTG, the ligation selection enrichment turned out to be 0.918 ± 0.18. Take ACTTC: the ligation selection enrichment was 0.192 ± 0.049. In the case of ACTTA, the ligation selection enrichment was determined as 0.172 ± 0.0078.

On to ACTTT, for which the ligation selection enrichment is 0.465 ± 0.065. In the case of CGCAG, the ligation selection enrichment is 0.2266 ± 0.0013.

With CGCAC, the ligation selection enrichment came out at 0.339 ± 0.028. Turning to CGCAA, the ligation selection enrichment was 0.29 ± 0.03.

As to CGCAT, the ligation selection enrichment came to 3.7 ± 0.39. On to TGGGT, for which the ligation selection enrichment came out at 0.417 ± 0.23. For TGGGA the value was 0.263 ± 0.038. The same measure for TGGGC: 0.171 ± 0.022; for TGGGG: 0.228 ± 0.049; for TGACG: 0.49 ± 0.13. For TGACT, the ligation selection enrichment is 0.683 ± 0.3. For TGACC, the ligation selection enrichment came out at 0.183 ± 0.0057. With TGACA, the ligation selection enrichment is 0.19 ± 0.052.

As to TCGTG, the ligation selection enrichment came out at 0.173 ± 0.047.

Consider TCGTT, for which the ligation selection enrichment came out at 0.205 ± 0.12. As for TCGTC, the ligation selection enrichment turned out to be 0.202 ± 0.02. Consider TCGTA, for which the ligation selection enrichment was found to be 0.31 ± 0.074.

Regarding TCTCG, the ligation selection enrichment was determined as 0.368 ± 0.12. TCTCC: the ligation selection enrichment amounted to 0.267 ± 0.12. For TGGTT the value was 0.438 ± 0.044.

On to TGGTC, for which the ligation selection enrichment was 0.198 ± 0.019.

As to TGGTG, the ligation selection enrichment is 0.288 ± 0.042.

TGGTA: the ligation selection enrichment is 0.325 ± 0.017.

Regarding TGTAC, the ligation selection enrichment was 0.277 ± 0.037.

TGTAT: the ligation selection enrichment came out at 1.97 ± 0.21. With TGTAG, the ligation selection enrichment is 0.307 ± 0.076. Take TGTAA: the ligation selection enrichment was 0.267 ± 0.021. Turning to GGGGG, the ligation selection enrichment is 0.405 ± 0.028. With GGGGC, the ligation selection enrichment came out at 0.21 ± 0.0028. GGGGT: the ligation selection enrichment turned out to be 0.345 ± 0.11. Consider GGGGA, for which the ligation selection enrichment came to 0.608 ± 0.042. On to ACTCT, for which the ligation selection enrichment worked out at 0.248 ± 0.12. Consider ACTCC, for which the ligation selection enrichment was found to be 0.321 ± 0.011. With ACTCA, the ligation selection enrichment was 0.217 ± 0.031. As to ACTCG, the ligation selection enrichment was 0.535 ± 0.046. On to ACGTC, for which the ligation selection enrichment was determined as 0.172 ± 0.045.

For ACGTG, the ligation selection enrichment stood at 0.17 ± 0.0072. For ACGTT the value was 0.149 ± 0.0019; for ACGTA, 0.221 ± 0.0031; for GGATG, 0.732 ± 0.14. Turning to GGATA, the ligation selection enrichment came out at 0.432 ± 0.027. GGATC: the ligation selection enrichment stood at 0.188 ± 0.03. For GGATT, the ligation selection enrichment was 1.31 ± 0.31.

Regarding CCTTC, the ligation selection enrichment amounted to 0.171 ± 0.02. For CCTTG the value was 0.874 ± 0.15; for CCTTT, 0.455 ± 0.12; for CCTTA, 0.159 ± 0.004. Consider AGGAG, for which the ligation selection enrichment was 0.806 ± 0.1. For AGGAA the value was 2.74 ± 0.034; for AGGAT, 95.7 ± 0.79; for AGGAC, 14.4 ± 2.2. In the case of GGCTA, the ligation selection enrichment turned out to be 0.228 ± 0.037. For GGCTC, the ligation selection enrichment was determined as 0.149 ± 0.0062.

With GGCTT, the ligation selection enrichment is 0.164 ± 0.12. As for GGCTG, the ligation selection enrichment is 0.393 ± 0.032. Turning to GCGTC, the ligation selection enrichment is 0.231 ± 0.09. With GCGTG, the ligation selection enrichment amounted to 0.272 ± 0.018. Take GCGTA: the ligation selection enrichment was found to be 0.332 ± 0.038. GCGTT: the ligation selection enrichment was found to be 0.288 ± 0.12.

As for TCTGA, the ligation selection enrichment worked out at 0.256 ± 0.023.

As for TCTGG, the ligation selection enrichment was determined as 0.417 ± 0.035. In the case of TCTGT, the ligation selection enrichment was determined as 0.0815 ± 0.058. Consider TCTGC, for which the ligation selection enrichment turned out to be 0.143 ± 0.0073. In the case of ACTAG, the ligation selection enrichment amounted to 0.403 ± 0.037. For ACTAC, the ligation selection enrichment amounted to 0.128 ± 0.011. For ACTAA the value was 0.168 ± 0.031; for ACTAT, 0.119 ± 0.05.
